Starred links: 1 amine or outer side, 2 acyl side, 3 side chain; linkers in the order of their positions; H or OH if unused. Groups on a side chain read outwards from the residue. No end group written: not given here. *: point of attachment. C18 diacid = O=C(O)CCCCCCCCCCCCCCCCC(=O)*; γGlu = O=C(O)[C@H](CCC(=O)[*:2])N[*:1]; AEEA = NCCOCCOCC(=O)O
What follows are binders tested against human corticotropin-releasing factor 2α (CRF2 α receptor) (human), Q13324 (assay: cell-based or functional assay).
human corticotropin-releasing factor 2α (CRF2 α receptor) (human), Q13324, sequence (Q13324 20-411): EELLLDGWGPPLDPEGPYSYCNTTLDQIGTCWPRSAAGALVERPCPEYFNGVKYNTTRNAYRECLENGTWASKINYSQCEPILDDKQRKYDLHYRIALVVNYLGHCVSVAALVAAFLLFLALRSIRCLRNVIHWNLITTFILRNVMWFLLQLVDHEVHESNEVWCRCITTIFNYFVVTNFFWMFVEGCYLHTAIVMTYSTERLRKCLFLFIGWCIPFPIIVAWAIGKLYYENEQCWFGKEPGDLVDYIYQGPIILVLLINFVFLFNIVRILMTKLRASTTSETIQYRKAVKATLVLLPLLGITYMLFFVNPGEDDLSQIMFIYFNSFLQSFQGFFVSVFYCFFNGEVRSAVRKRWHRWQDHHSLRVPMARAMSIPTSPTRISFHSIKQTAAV

Row | EC50 [nM], 0% HSA [nM] | Binder
1 | 25.4 | FTLSLDVPIGLKQILLKQQKQKKERQKAETNVQLLERV-NH2 (not fully specified (residue 12); printed as FTLSLDVPIGLK*QILLKQQKQKKERQKAETNVQLLERV-NH2) [SEQ ID NO: 66]
2 | 0.57 | IVLSLDVPIKLK([AEEA-AEEA-γGlu-C18 diacid])QILLEQEKQKKQREQAETNKQILAQV-NH2 (N-terminus assumed; SMILES CC[C@H](C)[C@H](N)C(=O)N[C@H](C(=O)N[C@@H](CC(C)C)C(=O)N[C@@H](CO)C(=O)N[C@@H](CC(C)C)C(=O)N[C@@H](CC(=O)O)C(=O)N[C@H](C(=O)N1CCC[C@H]1C(=O)N[C@H](C(=O)N[C@@H](CCCCN)C(=O)N[C@@H](CC(C)C)C(=O)N[C@@H](CCCCNC(=O)COCCOCCNC(=O)COCCOCCNC(=O)CC[C@H](NC(=O)CCCCCCCCCCCCCCCCC(=O)O)C(=O)O)C(=O)N[C@@H](CCC(N)=O)C(=O)N[C@H](C(=O)N[C@@H](CC(C)C)C(=O)N[C@@H](CC(C)C)C(=O)N[C@@H](CCC(=O)O)C(=O)N[C@@H](CCC(N)=O)C(=O)N[C@@H](CCC(=O)O)C(=O)N[C@@H](CCCCN)C(=O)N[C@@H](CCC(N)=O)C(=O)N[C@@H](CCCCN)C(=O)N[C@@H](CCCCN)C(=O)N[C@@H](CCC(N)=O)C(=O)N[C@@H](CCCNC(=N)N)C(=O)N[C@@H](CCC(=O)O)C(=O)N[C@@H](CCC(N)=O)C(=O)N[C@@H](C)C(=O)N[C@@H](CCC(=O)O)C(=O)N[C@H](C(=O)N[C@@H](CC(N)=O)C(=O)N[C@@H](CCCCN)C(=O)N[C@@H](CCC(N)=O)C(=O)N[C@H](C(=O)N[C@@H](CC(C)C)C(=O)N[C@@H](C)C(=O)N[C@@H](CCC(N)=O)C(=O)N[C@H](C(N)=O)C(C)C)[C@@H](C)CC)[C@@H](C)O)[C@@H](C)CC)[C@@H](C)CC)C(C)C)C(C)C) [SEQ ID NO: 67]
3 | 0.2 | IVLSLDVPIKLK([AEEA-AEEA-γGlu-C18 diacid])QILLEQERQKKQREQAETNKQILAQV-NH2 (N-terminus assumed; SMILES CC[C@H](C)[C@H](N)C(=O)N[C@H](C(=O)N[C@@H](CC(C)C)C(=O)N[C@@H](CO)C(=O)N[C@@H](CC(C)C)C(=O)N[C@@H](CC(=O)O)C(=O)N[C@H](C(=O)N1CCC[C@H]1C(=O)N[C@H](C(=O)N[C@@H](CCCCN)C(=O)N[C@@H](CC(C)C)C(=O)N[C@@H](CCCCNC(=O)COCCOCCNC(=O)COCCOCCNC(=O)CC[C@H](NC(=O)CCCCCCCCCCCCCCCCC(=O)O)C(=O)O)C(=O)N[C@@H](CCC(N)=O)C(=O)N[C@H](C(=O)N[C@@H](CC(C)C)C(=O)N[C@@H](CC(C)C)C(=O)N[C@@H](CCC(=O)O)C(=O)N[C@@H](CCC(N)=O)C(=O)N[C@@H](CCC(=O)O)C(=O)N[C@@H](CCCNC(=N)N)C(=O)N[C@@H](CCC(N)=O)C(=O)N[C@@H](CCCCN)C(=O)N[C@@H](CCCCN)C(=O)N[C@@H](CCC(N)=O)C(=O)N[C@@H](CCCNC(=N)N)C(=O)N[C@@H](CCC(=O)O)C(=O)N[C@@H](CCC(N)=O)C(=O)N[C@@H](C)C(=O)N[C@@H](CCC(=O)O)C(=O)N[C@H](C(=O)N[C@@H](CC(N)=O)C(=O)N[C@@H](CCCCN)C(=O)N[C@@H](CCC(N)=O)C(=O)N[C@H](C(=O)N[C@@H](CC(C)C)C(=O)N[C@@H](C)C(=O)N[C@@H](CCC(N)=O)C(=O)N[C@H](C(N)=O)C(C)C)[C@@H](C)CC)[C@@H](C)O)[C@@H](C)CC)[C@@H](C)CC)C(C)C)C(C)C) [SEQ ID NO: 68]

— US12679878B2, “CRF2 receptor agonists and their use in therapy” (SANOFI, priority 2020, dated 2026)
